# Literature values as cited in article PMC3386954.
# Biological target: Capillary morphogenesis gene 2 protein (Homo sapiens) (UniProt P58335)
substance,measurement,value
Protective antigen (from UniProt P13423),Kd,> 0.17 nM
